The test concerns the target Robo2, human, full-length, non-tagged (human) (UniProt Q9HCK4). Description: cell-based or functional assay.

Robo2, human, full-length, non-tagged (human), sequence (Q9HCK4 22-1378 limits assumed, form in doubt): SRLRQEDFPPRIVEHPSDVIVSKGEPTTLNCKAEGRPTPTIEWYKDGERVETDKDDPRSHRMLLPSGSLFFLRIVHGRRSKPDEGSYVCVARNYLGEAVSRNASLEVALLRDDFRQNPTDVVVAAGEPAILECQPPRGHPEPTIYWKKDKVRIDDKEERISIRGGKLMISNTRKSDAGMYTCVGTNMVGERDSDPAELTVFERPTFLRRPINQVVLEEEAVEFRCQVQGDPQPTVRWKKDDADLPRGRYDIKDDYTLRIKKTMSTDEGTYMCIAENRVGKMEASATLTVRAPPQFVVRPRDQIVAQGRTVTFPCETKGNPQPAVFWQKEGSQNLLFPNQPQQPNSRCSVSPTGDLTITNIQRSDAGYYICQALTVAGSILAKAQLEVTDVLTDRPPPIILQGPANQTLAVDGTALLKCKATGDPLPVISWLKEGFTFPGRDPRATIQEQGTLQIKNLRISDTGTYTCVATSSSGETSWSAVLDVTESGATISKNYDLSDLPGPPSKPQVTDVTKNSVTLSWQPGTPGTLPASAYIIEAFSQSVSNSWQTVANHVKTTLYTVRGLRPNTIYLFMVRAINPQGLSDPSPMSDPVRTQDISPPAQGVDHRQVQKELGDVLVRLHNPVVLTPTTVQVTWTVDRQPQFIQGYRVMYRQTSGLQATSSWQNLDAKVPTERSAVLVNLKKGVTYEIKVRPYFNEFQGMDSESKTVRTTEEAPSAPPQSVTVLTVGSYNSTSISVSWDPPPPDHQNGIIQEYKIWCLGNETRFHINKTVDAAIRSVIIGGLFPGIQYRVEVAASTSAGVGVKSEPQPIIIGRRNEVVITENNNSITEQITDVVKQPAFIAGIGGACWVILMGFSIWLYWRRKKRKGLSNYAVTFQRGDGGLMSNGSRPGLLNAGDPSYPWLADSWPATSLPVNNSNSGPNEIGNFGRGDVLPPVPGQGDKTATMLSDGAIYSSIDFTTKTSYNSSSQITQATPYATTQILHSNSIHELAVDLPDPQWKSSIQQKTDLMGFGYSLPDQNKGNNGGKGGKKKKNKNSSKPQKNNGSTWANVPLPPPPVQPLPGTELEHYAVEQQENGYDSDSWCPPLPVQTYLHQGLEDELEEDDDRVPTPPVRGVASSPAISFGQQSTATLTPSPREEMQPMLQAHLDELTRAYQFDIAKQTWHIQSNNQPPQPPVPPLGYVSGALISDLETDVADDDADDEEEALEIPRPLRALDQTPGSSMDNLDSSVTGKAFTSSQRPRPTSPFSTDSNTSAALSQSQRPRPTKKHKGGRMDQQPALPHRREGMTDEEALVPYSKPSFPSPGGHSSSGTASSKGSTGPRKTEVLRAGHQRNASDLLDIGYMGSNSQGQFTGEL

The substance “Slit2 (myc-tagged), in conditioned medium of stably transfected cells (ligand)” registered a percentage of CD16/7-NCD clustered HEK cells with F-actin tails (control medium without Slit2: ~80%) of 40%.

The values above are taken from US20170114412A1.
